From patent publication EP4695300A2 (dated 2026)
Changes are numbered by the printed parent chain.

B1: fully human anti-PTGFRN monoclonal antibody 4F8 (antibody, IgG4, V domains shown)
VH: EVQLVESGEGLVQPGRSLRLSCAASGFTFDDYAMHWVRQAPGKGLEWVSGISWDSGRIGYADSVKGRFTISRDNAKNSLYLQMNSLRAEDTALYYCAKDRGGGNWNYYYYGMDVWGQGTTVTVSS
VL: DIQMTQSPSSLSASVGDRVTITCRASQGISNYLAWFQQKPGKAPKSLIYAASSLQSGVPSKFSGSGSGTDFTLTISSLQPEDFATYYCQQYNSFPFTFGPGTKVDIK
B2: fully human anti-PTGFRN monoclonal antibody 8C7 (antibody, V domains shown)
VH: QLQLQESGPGLVKPSETLSLTCTVSGGSISSSSYYWGWIRQPPGKGLEWIGSIYYGGSTYYNPSLKSRVTISVDTSTNQFSLKLNSVTAADTAVYYCARQGLGSFDCWGQGTLVTVSS
VL: DVVMTQSPLSLPVTLGQPASISCRSSQSLVHSDGNTYLNWFQQRPGQSPRRLIYKVSNRDSGVPDRFSGSGSGTDFTLKISGVEAEDVGIYYCMQGTHWPPLTFGGGTKVEIK
notes: also called anti-PTGFRN antibody 8C7; internalizing anti-PTGFRN 8C7
B3: fully human anti-PTGFRN monoclonal antibody 6B2 (antibody, IgG1, V domains shown)
VH: B2 VH with G37D, S52T, T77K, Q100G, G101N, L102S, G103Y, S104G, F105L, C107Y
VL: B2 VL with T36M, G82R, G96S, L102V, G106Q, V110L
B4: fully human anti-PTGFRN monoclonal antibody 12D8 (antibody, IgG1, V domains shown)
VH: EVQLVESGGGLVQPGRSLRLSCAASGFTFDDYAMHWVRQAPGKGLEWVSGISWSSGSLGYEDSVKGRFTISRDNAKKTLYLQMNSLRAEDTALYYCAKDMGFGDFLYYYGMDVWGQGTTVTVSS
VL: EIVLTQSPGTLSLSPGERATLSCRASQSVSSSYLTWYQQKPGQAPRLLIYGASSRATGIPDRFSGSGSGTDFTLTIRRLEPEDFAVYYCQQYGDSPPWTFGQGTKVEIK

Columns and labels:
[1] = target: T1, PTGFRN as used in the Octet / BLI affinity measurement (UniProt Q9P2B2 26-832, limits assumed); assay: Octet method
T1 sequence (looked up): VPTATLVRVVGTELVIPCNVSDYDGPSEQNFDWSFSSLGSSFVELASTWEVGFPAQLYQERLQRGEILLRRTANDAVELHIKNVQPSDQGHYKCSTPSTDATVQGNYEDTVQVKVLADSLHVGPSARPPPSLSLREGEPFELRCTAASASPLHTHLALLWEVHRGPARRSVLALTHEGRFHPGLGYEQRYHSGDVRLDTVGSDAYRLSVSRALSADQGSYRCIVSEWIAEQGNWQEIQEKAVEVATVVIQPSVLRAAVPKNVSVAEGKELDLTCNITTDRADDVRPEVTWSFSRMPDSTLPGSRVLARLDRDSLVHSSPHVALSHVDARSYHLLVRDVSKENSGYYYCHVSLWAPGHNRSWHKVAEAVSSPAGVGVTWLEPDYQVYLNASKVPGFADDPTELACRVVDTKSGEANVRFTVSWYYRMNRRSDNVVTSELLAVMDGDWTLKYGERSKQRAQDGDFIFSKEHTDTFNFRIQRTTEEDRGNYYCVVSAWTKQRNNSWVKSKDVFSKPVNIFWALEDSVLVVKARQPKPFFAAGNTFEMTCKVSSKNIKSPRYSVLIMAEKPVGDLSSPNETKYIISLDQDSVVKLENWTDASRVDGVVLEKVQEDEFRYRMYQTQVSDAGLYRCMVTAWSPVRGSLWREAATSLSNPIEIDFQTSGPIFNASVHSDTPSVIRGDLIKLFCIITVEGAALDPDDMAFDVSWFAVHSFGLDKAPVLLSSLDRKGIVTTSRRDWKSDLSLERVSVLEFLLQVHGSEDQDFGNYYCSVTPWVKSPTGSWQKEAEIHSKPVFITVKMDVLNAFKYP

[2] = target: T1, PTGFRN as used in the Octet / BLI …; assay: Bi-Layer Interferometry (BLI), Octet Red96
[3] = target: T2, Prostaglandin F2 Receptor Inhibitor (PTGFRN), expressed by cells (human, UniProt Q9P2B2 26-879); assay: flow binding on cells
T2 construct: whole, on cells; Also used for the endogenous protein in Brij-O10 cell lysates in the co-immunoprecipitation experiments; also called cell surface PTGFRN; prostaglandin F2 receptor negative regulator
T2 sequence (looked up): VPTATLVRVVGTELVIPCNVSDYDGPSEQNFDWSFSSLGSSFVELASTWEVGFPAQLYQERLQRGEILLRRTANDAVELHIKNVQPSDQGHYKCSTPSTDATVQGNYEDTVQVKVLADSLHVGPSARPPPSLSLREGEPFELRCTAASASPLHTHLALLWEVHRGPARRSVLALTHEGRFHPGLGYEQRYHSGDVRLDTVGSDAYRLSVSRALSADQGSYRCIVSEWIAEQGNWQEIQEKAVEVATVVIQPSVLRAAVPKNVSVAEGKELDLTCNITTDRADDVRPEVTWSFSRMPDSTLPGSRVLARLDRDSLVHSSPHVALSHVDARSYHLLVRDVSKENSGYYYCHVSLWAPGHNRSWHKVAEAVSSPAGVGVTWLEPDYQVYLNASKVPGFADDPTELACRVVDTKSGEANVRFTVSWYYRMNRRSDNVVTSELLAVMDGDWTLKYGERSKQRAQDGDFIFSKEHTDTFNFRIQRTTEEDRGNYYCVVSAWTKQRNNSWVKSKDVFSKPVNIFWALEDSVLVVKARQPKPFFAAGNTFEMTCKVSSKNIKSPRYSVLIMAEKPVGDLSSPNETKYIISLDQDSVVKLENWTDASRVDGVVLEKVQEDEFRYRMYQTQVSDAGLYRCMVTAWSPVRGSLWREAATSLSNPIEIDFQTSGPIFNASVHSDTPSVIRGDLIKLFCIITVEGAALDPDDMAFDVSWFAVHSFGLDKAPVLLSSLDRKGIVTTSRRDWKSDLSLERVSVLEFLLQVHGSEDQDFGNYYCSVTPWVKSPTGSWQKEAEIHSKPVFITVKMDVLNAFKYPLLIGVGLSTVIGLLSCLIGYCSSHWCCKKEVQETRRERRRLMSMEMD

Row | Binder | binding result [3] | also measured
1 | B1 |  | Kd [1]: 5.2 nM
2 | B2 |  | Kd [2]: 0.001 nM
3 | B3 | binds | 
4 | B4 | binds | 
